The record followed here is paper PMC4038614.

Test [1] concerns the target Ly49H^B6 expressed on BWZ.36 cells (BWZ-Ly49H) (mouse (B6)) (UniProt Q60682). Briefly: flow cytometry on cells; association time course: BWZ transfectants with saturating m157-Fc for 30 sec/1 min to 40 min at 4°C; MFI at 40 min = 100%. Background: Flow cytometry measures light scatter and fluorescence of single cells or particles in a stream.
The target in test [2] is Ly49C^B6 expressed on BWZ.36 cells (BWZ-Ly49C) (mouse (B6)) (UniProt Q64329). Described as above.
Test [3] deals with Ly49H (B6 allele), endogenous on splenic NK cells (mouse (endogenous in splenic NK cells)) (UniProt Q60682).
Test [4] has as its target Ly49H^B6 expressed on BWZ.36 cells (BWZ-Ly49H) (mouse (B6)) (UniProt Q60682). Briefly: flow cytometry on cells; dissociation: BWZ transfectants labelled with saturating m157-Fc at 4°C, washed, incubated at 37°C for 5 to 90 min with excess anti-m157 antibody 6H121 to prevent re-binding; MFI at 0 min = 100%.
For test [5], the target named is Ly49C^B6 expressed on BWZ.36 cells (BWZ-Ly49C) (mouse (B6)) (UniProt Q64329). The test is described as above.

Bounds are passed on as bounds.

UniProt Q64329, sequence (Q64329 whole entry): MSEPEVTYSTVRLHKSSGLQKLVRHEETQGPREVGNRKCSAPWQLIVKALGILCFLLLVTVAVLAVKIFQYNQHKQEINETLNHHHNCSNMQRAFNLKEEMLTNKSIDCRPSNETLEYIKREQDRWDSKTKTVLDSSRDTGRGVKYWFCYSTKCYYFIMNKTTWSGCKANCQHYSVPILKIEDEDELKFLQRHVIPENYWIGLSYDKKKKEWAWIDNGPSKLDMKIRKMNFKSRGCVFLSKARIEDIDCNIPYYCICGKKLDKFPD

Consider “m157^G1F-Fc soluble fusion protein (Fc fusion)”, for which, in test [1], the time to 50% of maximal binding came out at 7 min. The time to 50% of maximal binding in test [2] worked out at 5 min. In test [3], this substance yielded an IFN-γ production of Ly49H^+,C^- B6 NK cells exposed to RMA cells expressing m157^G1F; abolished by blocking anti-Ly49H 3D10 of 15 % IFN-γ^+ and a degranulation (LAMP1^+) of Ly49H^+,C^- B6 NK cells exposed to RMA cells expressing m157^G1F; abolished by blocking anti-Ly49H 3D10 of 40 % LAMP1^+. For the same substance, the percent still bound after 90 min in test [4] was more than 50%. The substance also displayed a time to 50% dissociation in test [5] of 20 min.
